# Experimental data reported in patent publication US20250179215A1, “PLASMIN-BINDING VHHS” (RHEINISCHE FRIEDRICH-WILHELMS-UNIVERSITÄT BONN, priority 2022, published 2025).
# Entries after “also recorded” stand apart in the source; their conditions may differ.
# How the values were obtained:
# plasmin [1] = target: T1, plasmin (Homo sapiens, UniProt P00747); test: Activated factor V-inactivation assay (prothrombinase assay); assay type: biochemical; conditions: for FVa inactivation by plasmin reduced to % of normal: summary statement, concentration not given; for FVa inactivation rate reduced to: plasmin 1.5 nM, rate without VHH = 100%
# T1 construct: human Lys-plasmin which is prepared from homogeneous Glu-plasminogen using uPA; purchased Haematologic Technologies, Inc. (Essex Junction, VT)
# Experimental: FIG. 6. (A) Influence of VHHs on plasmin-mediated FVa cleavage. Plasmin (1.5 nM) was incubated with increasing concentrations of VHHs for 30 min at 37° C. After addition of FVa (30 pM) and further incubation for 30 min, FXa (0.52 pM), prothrombin (10 nM) and a fluorogenic thrombin substrate (100 μM) were added and the FVa-dependent thrombin generation was measured. The FVa inactivation rate measured in the absence of VHHs or plasmin inhibitors was set as 100%. […] The data are presented as mean±SD of two independent measurements.
# Plasmin-mediated inactivation of activated factor V (FVa) was measured using a prothrombinase assay as recently described (Hamedani 2020). Briefly, 1.5 nM plasmin in assay buffer (20 mM Tris-HCl, 137 mM NaCl, 10 mg/ml phospholipids, 5 mM CaCl2, 1 mg/ml BSA, pH 7.4) was preincubated with VHHs (0.1 nM-10 μM final concentrations) for 30 min at 37° C. Then, 60 μl of the mixture were mixed with 60 μl of […] FVa. After further incubation for 30 min, 25 μl of the reaction mixture were mixed with 50 μl of 1.3 μM human FXa and 100 μM fluorogenic thrombin substrate (Boc-Asp(OBzl)-Pro-Arg-AMC) and 50 μl of 10 nM human prothrombin. Thrombin catalyzed substrate hydrolysis was monitored at λex of 360 nm and λem of 460 nm using the Synergy 2 microplate reader.
# [2] = system: citrate-anticoagulated pooled normal human plasma; test: Rotational thrombelastometry clot formation parameters in plasma; assay type: biochemical; conditions: VHHs or BPTI 2.4 μM, TXA 2.4 μg/ml; tPA 0.1 μg/ml
# Experimental: FIG. 10. The impact of VHHs on the clot formation parameters in plasma monitored by rotational thrombelastometry. […] After addition of tPA to reach a final concentration of 0.1 μg/ml, coagulation was initiated by addition of recombinant tissue factor (Dade® Innovin®) dissolved 1:100 in calcium chloride solution (0.2 M). The viscoelasticity of the formed clot was measured in terms of (A) clotting time, (B) maximum clot firmness, and (C) maximum clot elasticity. A non-binder VHH (GFP-enhancer VHH) was used as negative control. Mean values and SD were calculated out of three measurements.
# (§1) The impact of VHHs on the fibrinolytic activity in plasma and whole blood was monitored using rotational thrombelastometry using the ROTEM delta system (TEM Innovations Ltd., Munich, Germany). […] After addition of 0.1 μg/ml tPA, coagulation was initiated by addition of recombinant tissue factor (Dade Innovin, Siemens Healthcare, Marburg, Germany) dissolved 1:100 in calcium chloride (0.2 M). The viscoelasticity of the formed clot was measured in terms of key parameters including clotting time, maximal clot firmness, maximum clot elasticity, maximum lysis, lysis index after 60 minutes, and lysis onset time.
# plasmin [3] = target: T1, plasmin; test: Michaelis-Menten kinetics of plasmin-mediated cleavage of fluorogenic peptide substrate; assay type: biochemical; conditions: plasmin 5 nM; VHHs 1 μM, BPTI 3 nM, TXA 7.86 mg/ml; w/o ligand 51.8
# Experimental: Subsequently, 50 μl of the fluorogenic substrate (3.16-3,160 μM final concentration in assay buffer) was added. Substrate hydrolysis rates were monitored by kinetic measurements using the Synergy 2 microplate reader. Apparent Michaelis-Menten constants (Km) and the turn-over number (kcat) values for substrate hydrolysis were calculated from best fit values of the Michaelis-Menten equation and the catalytic efficiencies were expressed as ratios of kcat/Km.
# CI, confidence interval. ^a The turnover number (kcat) was calculated using Vmax values extracted from Michaelis-Menten least squares fit.
# [4] = system: citrate-anticoagulated whole blood; test: Rotational thrombelastometry clot lysis in tPA-spiked whole blood; assay type: biochemical; conditions: for lysis index at 60 min: concentrations above 1.2 μM, decrease from 65%; for lysis index at 60 min / lysis onset time: tPA 0.5 μg/ml; for lysis onset time: reduced from 47.2 min
# Text: To further test the fibrinolysis-activating properties of VHHs in an ex-vivo model of hyperfibrinolysis, a whole blood based assay can be used whereat citrate-anticoagulated whole blood in the presence of VHHs is spiked with tPA and clot formation and the fibrinolysis rate of the formed clot monitored by thrombelastometry after initiation of clotting by addition of CaCl2) solution containing recombinant TF.
# FIG. 4. Influence of VHHs on endogenous fibrinolysis. (A) Citrate-anticoagulated whole blood was mixed with VHHs A11 or C5 and with tPA to achieve a final concentration of 0.5 μg/ml and clot formation was induced by addition of CaCl2) (0.2 M). (B) Lysis index at 60 min(C) Maximum lysis rates, and (D) lysis onset time were recorded. Mean values and SD were calculated out of three measurements.
# as §1
# human plasmin = human plasmin (human, UniProt P00747 97-580; P00747 581-810); test: cell-based or functional assay
# plasminogen = target: T2, plasminogen (Homo sapiens, UniProt P00747); test: Plasmin generation assay (tPA-mediated plasminogen activation, purified system); assay type: biochemical; conditions: for inhibition of plasmin generation at higher concentrations: at the assessed / higher concentrations; for EC50: plasminogen 10 nM, tPA 10 nM, read-out: EC50 of tPA-induced plasmin generation
# T2 construct: Plasma derived human Glu-plasminogen; purchased Haematologic Technologies, Inc. (plasminogen); Boehringer Ingelheim (tPA)
# Experimental: In order to assess the influence of VHHs on tPA-mediated plasminogen activation, plasminogen was preincubated with increasing concentrations of VHHs. After addition of tPA, plasmin generation was measured over time using a fluorogenic plasmin peptide substrate.
# FIG. 5. Influence of VHHs on tPA-mediated plasminogen activation. […] After addition of tPA (10 nM final concentration) plasmin generation was measured over time using the fluorogenic plasmin assay. The data are presented as mean±SD of three independent measurements.
# Plasminogen (50 nM) was incubated with VHHs (2 μM to 0.2 μM) for 30 min at 37° C. in assay buffer. Subsequently, 20 μl of 50 nM tPA was added to the mixture and incubated at 37° C. After 3 hours of incubation at 37° C., 50 μl of the mixture were transferred to the wells of black F16 Fluoronunc modules and after addition of 50 μl of the plasmin-specific fluorogenic substrate (800 μM) fluorescence intensities were measured at λex of 360 nm and λem of 460 nm using the Synergy 2 microplate reader.
# plasmin [5] = target: T1, plasmin; test: VHHs competition ELISA (plasmin binding to immobilized VHH); conditions: free VHH vs immobilized VHH; plasmin 10 nM
# Experimental: FIG. 2. VHHs competition ELISA. The VHH (A) A11 or (B) C5 was immobilized in the microtiter plate by overnight incubation of 10 μg/ml VHH in 100 μl of coating buffer. […] Data represent the mean±SD of two measurements.
# To assess the competition of VHHs for similar or overlapping binding sites on the plasmin molecule, a competition ELISA was performed. Microtiter (96-well) plates were coated with VHHs (10 μg/ml in coating buffer, 100 μl/well) at 2-8° C. overnight. Wells were washed and non-specific protein-binding sites were blocked with 20 mg/ml bovine serum albumine (BSA) for 2 h at RT. After removing the blocking buffer, wells were overlaid with a reaction mixture containing plasmin (10 nM) and VHHs (0.316 nM-31.6 μM) in buffer (20 mM HEPES, 154 mM NaCl, BSA 1 mg/ml, pH 7.4) for 30 min at RT. After washing the amount of bound plasmin was quantified through hydrolysis rates of the fluorogenic plasmin substrate (300 μM, 100 μl/well). The fluorescence intensity measured in the absence of free VHHs was set as 100%.
# tPA = target: T3, tPA (Homo sapiens, UniProt P00750); test: Biolayer Interferometry (BLI) binding of VHHs to tPA; conditions: HIS-tagged VHH on biosensor
# T3 construct: purchased Boehringer Ingelheim (Biberach, Germany) Actilyse
# plasmin [6] = target: T1, plasmin; test: Influence on catalytic activity of plasmin with fluorogenic peptide substrate; assay type: biochemical; conditions: plasmin 5 nM; for increase in substrate conversion: at molar ratios of VHHs over plasmin of 158 (A11) and 500 (C5)
# Experimental: FIG. 3. Effect of plasmin VHHs on the catalytic activity of plasmin for peptide substrates. […] Mean values and SD were calculated out of three measurements.
# After incubation, 50 μl of the mixtures were transferred to the wells of black F16 Fluoronunc modules (Thermo Fisher Scientific [Nunc]). Subsequently, 50 μl of 800 μM PLM-specific fluorogenic peptide substrate in the assay buffer (H-Ala-Phe-Lys-AMC, Bachem) was added to the wells and the kinetics of plasmin-mediated substrate hydrolysis was monitored using the Synergy 2 microplate reader.
# Ocriplasmin = Ocriplasmin (Homo sapiens, UniProt P00747); test: Biolayer Interferometry (BLI) binding of VHHs to ocriplasmin (miniplasmin); conditions: HIS-tagged VHH on biosensor
# Experimental: (§2) VHHs binding affinities to human and mouse plasminogen/plasmin were assessed according to Biolayer Interferometry (BLI) using the BLItz system (Pall Life Sciences, Dreieich, Germany) and the Blitz 1.2 software package (Hamedani 2016). […] Afterward, the biosensor was lowered into a tube containing 500 μl of binding buffer to determine kd and koff. All measurements were performed at a shaking speed of 2,200 rpm.
# plasmin [7] = target: T1, plasmin; test: Biolayer Interferometry (BLI) binding of VHHs to human plasmin; conditions: HIS-tagged VHH on biosensor
# Experimental: as §2
# mouse plasminogen = target: T4, mouse plasminogen (Mus musculus, UniProt P20918); test: Biolayer Interferometry (BLI) binding of VHHs to mouse plasminogen; conditions: HIS-tagged VHH on biosensor
# T4 construct: mouse Glu-plasminogen, mouse plasmin; purchased Haematologic Technologies, Inc. (Essex Junction, VT)
# Experimental: as §2
# Chain of Ocriplasmin (P00747 581-810 limits assumed, other chains not shown): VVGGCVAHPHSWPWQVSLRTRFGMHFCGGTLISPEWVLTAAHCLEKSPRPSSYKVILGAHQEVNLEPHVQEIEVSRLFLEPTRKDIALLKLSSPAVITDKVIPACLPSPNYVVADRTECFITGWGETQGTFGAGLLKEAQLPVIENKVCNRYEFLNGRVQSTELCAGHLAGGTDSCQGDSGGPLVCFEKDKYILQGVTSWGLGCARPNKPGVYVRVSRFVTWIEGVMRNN
# T2 sequence (P00747 20-810 limits assumed): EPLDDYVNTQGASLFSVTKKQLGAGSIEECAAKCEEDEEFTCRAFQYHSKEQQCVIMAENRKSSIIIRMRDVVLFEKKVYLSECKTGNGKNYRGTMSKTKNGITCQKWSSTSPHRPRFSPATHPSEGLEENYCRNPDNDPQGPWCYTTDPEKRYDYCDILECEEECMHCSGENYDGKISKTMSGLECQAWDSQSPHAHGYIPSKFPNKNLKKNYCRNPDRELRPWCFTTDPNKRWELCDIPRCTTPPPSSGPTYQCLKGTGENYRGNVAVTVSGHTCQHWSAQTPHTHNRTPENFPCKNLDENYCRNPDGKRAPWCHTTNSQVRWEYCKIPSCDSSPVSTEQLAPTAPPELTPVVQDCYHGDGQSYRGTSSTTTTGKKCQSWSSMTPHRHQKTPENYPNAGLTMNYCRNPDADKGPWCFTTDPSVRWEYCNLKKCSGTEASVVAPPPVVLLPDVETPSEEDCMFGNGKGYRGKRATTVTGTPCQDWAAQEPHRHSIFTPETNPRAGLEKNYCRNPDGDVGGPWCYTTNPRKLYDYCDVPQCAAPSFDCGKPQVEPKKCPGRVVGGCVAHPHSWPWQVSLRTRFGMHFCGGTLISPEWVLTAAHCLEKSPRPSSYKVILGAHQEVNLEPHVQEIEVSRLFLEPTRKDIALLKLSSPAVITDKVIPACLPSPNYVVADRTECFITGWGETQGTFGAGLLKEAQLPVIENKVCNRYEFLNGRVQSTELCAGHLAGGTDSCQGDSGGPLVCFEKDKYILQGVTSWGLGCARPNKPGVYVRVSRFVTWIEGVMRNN
# T1 sequence (P00747 97-580 limits assumed): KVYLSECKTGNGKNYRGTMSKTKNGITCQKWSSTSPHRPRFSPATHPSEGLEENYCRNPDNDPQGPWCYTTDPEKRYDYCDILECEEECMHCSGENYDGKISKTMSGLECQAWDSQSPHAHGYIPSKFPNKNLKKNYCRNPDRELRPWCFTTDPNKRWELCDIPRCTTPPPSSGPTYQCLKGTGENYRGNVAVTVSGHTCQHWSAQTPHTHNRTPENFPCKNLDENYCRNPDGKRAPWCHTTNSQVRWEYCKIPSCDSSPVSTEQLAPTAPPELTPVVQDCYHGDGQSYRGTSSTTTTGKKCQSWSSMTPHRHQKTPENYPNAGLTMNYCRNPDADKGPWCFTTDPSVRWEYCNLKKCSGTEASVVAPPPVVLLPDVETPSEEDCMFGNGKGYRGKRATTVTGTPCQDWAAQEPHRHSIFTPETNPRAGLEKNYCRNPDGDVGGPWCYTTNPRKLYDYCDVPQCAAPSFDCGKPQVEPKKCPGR
# T1 sequence (P00747 581-810 limits assumed): as the sequence (P00747 581-810 limits assumed, other chains not shown) above
# T4 sequence (P20918 20-812 limits assumed): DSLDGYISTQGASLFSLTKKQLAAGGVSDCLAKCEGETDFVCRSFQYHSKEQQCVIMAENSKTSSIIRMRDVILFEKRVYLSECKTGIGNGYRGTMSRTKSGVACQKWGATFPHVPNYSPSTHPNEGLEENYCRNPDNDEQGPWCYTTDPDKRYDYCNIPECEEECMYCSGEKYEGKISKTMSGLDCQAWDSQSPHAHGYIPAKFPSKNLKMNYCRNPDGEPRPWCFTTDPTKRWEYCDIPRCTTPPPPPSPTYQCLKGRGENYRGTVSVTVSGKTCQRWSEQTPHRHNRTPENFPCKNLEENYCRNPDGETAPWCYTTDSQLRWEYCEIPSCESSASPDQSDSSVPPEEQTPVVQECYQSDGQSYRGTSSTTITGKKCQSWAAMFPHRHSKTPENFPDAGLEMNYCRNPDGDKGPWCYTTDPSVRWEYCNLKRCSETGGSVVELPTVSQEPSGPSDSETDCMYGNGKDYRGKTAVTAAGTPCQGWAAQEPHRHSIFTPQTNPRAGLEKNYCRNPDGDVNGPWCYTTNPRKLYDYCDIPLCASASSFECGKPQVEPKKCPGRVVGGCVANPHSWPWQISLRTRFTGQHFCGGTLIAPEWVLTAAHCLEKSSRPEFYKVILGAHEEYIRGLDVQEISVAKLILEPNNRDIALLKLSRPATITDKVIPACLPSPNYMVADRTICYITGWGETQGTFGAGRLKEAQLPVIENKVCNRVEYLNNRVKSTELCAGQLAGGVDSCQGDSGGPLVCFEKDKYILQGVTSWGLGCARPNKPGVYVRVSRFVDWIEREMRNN
# T3 sequence (P00750 36-562): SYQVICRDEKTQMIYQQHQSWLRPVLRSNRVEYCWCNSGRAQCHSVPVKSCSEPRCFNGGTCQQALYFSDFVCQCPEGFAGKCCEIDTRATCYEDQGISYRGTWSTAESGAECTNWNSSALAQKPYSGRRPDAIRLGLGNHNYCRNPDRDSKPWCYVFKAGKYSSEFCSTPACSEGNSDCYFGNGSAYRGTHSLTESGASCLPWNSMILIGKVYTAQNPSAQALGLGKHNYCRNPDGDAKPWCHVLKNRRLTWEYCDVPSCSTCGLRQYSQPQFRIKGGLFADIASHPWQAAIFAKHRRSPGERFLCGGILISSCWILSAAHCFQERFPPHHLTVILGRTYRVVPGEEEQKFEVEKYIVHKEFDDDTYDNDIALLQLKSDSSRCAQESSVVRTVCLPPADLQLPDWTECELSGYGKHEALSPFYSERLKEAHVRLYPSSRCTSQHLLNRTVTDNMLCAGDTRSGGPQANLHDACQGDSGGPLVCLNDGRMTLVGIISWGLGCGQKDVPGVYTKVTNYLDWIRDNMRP
# Chain of human plasmin (P00747 97-580 limits assumed, chain 1 of 2): as the sequence (P00747 97-580 limits assumed) above
# Chain of human plasmin (P00747 581-810 limits assumed, chain 2 of 2): as the sequence (P00747 581-810 limits assumed, other chains not shown) above
Molecule,FVa inactivation by plasmin reduced to % of normal (plasmin [1]),kcat × 10^3 (s^−1) mean (95% CI) (plasmin [3]),inhibition of plasmin generation at higher concentrations (plasminogen),EC50 (plasminogen),competition of VHHs for binding site on plasmin molecule (plasmin [5]),kD tPA (tPA),increase in substrate conversion (plasmin [6]),kD human plasmin (plasmin [7]),lysis index at 60 min [4],lysis onset time [4],kD mouse plasminogen (mouse plasminogen),other results
"Aprotinin [BPTI, reference compound]",20%,29.6 (29-30) s^−1,–,–,–,–,–,–,–,–,–,"maximal inhibition rate of plasmin-mediated cleavage of FVa (plasmin [1]; BPTI 10 μM): 26%; effect on fibrin clot formation parameters (clotting time, maximum clot firmness, maximum clot elasticity) [2]: does not affect; effect on lysis compared to VHHs (FIG. 4C, maximum lysis rates) ([4]; tPA-spiked whole blood): inhibition of lysis"
human alpha2-antiplasmin (from UniProt P08697 40-491),–,–,–,–,–,–,–,–,–,–,–,residual plasmin activity after incubation with α2AP (human plasmin): < 0.1%
"VHH A11: Plasmin-binding alpaca VHH; variable domain SEQ ID NO: 9, or 11 with C-terminal His6-tag; CDRs SEQ ID NO: 1-3 (protein, A11 VHH) VHH: QVQLVETGGGLVQAGGSLRLSCAASGNIFSINAMDWYRQAPGKERELVAAITSGGTTNYADSVKGRFTISRDNAKDTVYLQMNSLKPEDAAFYYCNADGYYSDYDKNLAEFNSWGQGTQVTVSS",–,67.2 (65-70) s^−1,no inhibitory effect,0.93 nM,competed for the same or overlapping binding site,weak binding,approx. 2.5 fold,low nanomolar range,0%,10.3 min,no reactivity,FVa inactivation rate reduced to (plasmin [1]; A11 concentrations above 10^-9 M): 60%; FVa inactivation by plasmin reduced to % of normal (plasmin [1]; listed as A11): 60%; molar ratio of VHHs over plasmin at which approx. 2.5-fold increase in substrate conversion was achieved (plasmin [6]; H-Ala-Phe-Lys-AMC): 158; kD Ocriplasmin (Ocriplasmin; listed as A11): None of these VHHs bind; also recorded: n.b.*
"VHH C5: Plasmin-binding alpaca VHH; variable domain SEQ ID NO: 10, or 20 with C-terminal His6-tag; CDRs SEQ ID NO: 4-6 (protein, C5 VHH) VHH: QVQLVESGGGLVQAGGSLRLSCAASGRRFMVVAMGWYRQAPGNQRELVASITNGGTTNYAGSVKGRFTISGDSAKNTVYLHMNSLKPEDTAVYYCTTDVVFRDGNGQIQSNWGQGTQVTVSS",80%,69.9 (68-72) s^−1,no inhibitory effect,2.3 nM,competed for the same or overlapping binding site,weak binding,approx. 2.5 fold,low nanomolar range,0%,13.8 min,no reactivity,FVa inactivation rate reduced to (plasmin [1]; C5 concentration of 3.16 nM or higher): 78%; kD Ocriplasmin (Ocriplasmin; listed as C5): None of these VHHs bind and n.b.
